According to patent publication US20250257149A1:

How the values were obtained:
[1] = biological target: MUC1 tandem repeat peptide …-T(X)-… with Galβ1-3GalNAcalpha (TF) at T (human); assay: antigen ELISA on TF-PDTR MUC1 peptide, purified antibody [panel Binding to TF-MUC1]
[2] = biological target: MUC1 tandem repeat peptide …-T(X)-… with GalNAcalpha (Tn) at T (human); assay: antigen ELISA on Tn-PDTR MUC1 peptide, purified antibody [panel Binding to Tn-MUC1]
Chain of MUC1 tandem repeat peptide …-T(X)-… with GalNAcalpha (Tn) at T (human) (peptide, as listed by the source): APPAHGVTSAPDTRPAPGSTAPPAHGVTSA

Chain of MUC1 tandem repeat peptide …-T(X)-… with Galβ1-3GalNAcalpha (TF) at T (human) (peptide, as listed by the source): as above

EC50 (read off the curve) [1]: 8 ng/mL
EC50 (read off the curve) [2]: 10 ng/mL
Substance: PankoMab N54W (antibody)
